According to patent US20250289905A1 (MIRIMGENE, published 2025):

T1: human WARS1 recombinant protein (human, UniProt P23381 2-471, limits assumed)
T1 sequence: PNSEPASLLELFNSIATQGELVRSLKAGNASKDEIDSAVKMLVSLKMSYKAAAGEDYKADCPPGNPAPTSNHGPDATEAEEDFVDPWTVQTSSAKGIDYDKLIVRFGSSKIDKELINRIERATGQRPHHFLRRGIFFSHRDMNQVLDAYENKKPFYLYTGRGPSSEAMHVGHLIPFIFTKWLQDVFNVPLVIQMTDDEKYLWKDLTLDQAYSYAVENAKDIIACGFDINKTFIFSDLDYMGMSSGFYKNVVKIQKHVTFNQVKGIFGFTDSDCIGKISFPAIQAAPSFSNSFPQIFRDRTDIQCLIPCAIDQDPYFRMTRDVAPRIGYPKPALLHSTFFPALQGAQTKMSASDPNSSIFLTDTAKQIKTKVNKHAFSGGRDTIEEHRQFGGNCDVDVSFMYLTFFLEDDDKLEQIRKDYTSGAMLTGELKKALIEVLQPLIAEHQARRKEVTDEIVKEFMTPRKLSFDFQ

T2: rat-derived WARS1 recombinant protein (rat, UniProt Q6P7B0 1-481, limits assumed)
T2 construct: Recombinant, His-tagged (detected with anti-His tag antibody); construct not described; also called rat WARS1
T2 sequence (looked up): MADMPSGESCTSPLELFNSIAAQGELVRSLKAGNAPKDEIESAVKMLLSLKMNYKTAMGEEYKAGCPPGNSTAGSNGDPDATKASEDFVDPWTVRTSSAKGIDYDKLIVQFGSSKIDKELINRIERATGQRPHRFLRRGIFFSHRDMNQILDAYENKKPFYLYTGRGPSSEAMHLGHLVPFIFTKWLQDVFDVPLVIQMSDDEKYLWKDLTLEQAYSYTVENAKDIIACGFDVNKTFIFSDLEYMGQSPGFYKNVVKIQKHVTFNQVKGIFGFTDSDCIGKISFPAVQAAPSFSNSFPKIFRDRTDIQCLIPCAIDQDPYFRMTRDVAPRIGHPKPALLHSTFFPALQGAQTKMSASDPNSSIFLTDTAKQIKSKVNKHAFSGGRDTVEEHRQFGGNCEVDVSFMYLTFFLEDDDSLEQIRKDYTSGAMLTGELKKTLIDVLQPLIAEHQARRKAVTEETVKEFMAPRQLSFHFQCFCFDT

T3: mouse-derived WARS1 recombinant protein (mouse, UniProt P32921 1-481, limits assumed)
T3 construct: Recombinant, His-tagged (detected with anti-His tag antibody); construct not described; In the western blot also secreted WARS1 from J774A.1 supernatant and mouse serum; also called mouse WARS1
T3 sequence (looked up): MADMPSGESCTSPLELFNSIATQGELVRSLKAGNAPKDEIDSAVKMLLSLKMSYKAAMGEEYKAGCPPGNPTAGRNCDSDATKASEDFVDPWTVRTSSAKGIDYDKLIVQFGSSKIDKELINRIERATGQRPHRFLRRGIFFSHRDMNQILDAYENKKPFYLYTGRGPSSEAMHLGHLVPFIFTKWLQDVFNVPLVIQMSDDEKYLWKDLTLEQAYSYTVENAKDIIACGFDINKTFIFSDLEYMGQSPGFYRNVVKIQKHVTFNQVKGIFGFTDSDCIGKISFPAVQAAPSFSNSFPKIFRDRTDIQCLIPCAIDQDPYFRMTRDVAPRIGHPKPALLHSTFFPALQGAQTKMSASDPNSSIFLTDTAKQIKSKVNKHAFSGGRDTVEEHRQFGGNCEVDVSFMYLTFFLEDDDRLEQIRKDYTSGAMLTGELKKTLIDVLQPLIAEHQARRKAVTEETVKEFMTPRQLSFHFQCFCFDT


Legend:
[1] = target: T1, human WARS1 recombinant protein; experiment: cell-based or functional assay
[2] = target: T2, rat-derived WARS1 recombinant protein; experiment: western blot; recombinant protein
Description: (§1) At this time, a WARS1 recombinant protein (human, mouse, pig, marmoset (NHP), or rat-derived), cell culture medium, and human or mouse serum were used as WARS1 protein samples. In particular, the cell culture medium was used by treating the human monocyte cell line, THP-1, or the mouse macrophage cell line, J774.1A, with LPS (lipopolysaccharide, 100 ng/ml) for 24 hours to induce an inflammatory response, and then the cell culture supernatant was obtained for use.
(§2) 30 μg of each of the WARS1 recombinant protein (human, mouse, pig, marmoset (NHP), or rat-derived), the cell supernatant obtained using the method above, and mouse or human serum was loaded onto 8% SDS-PAGE, then transferred to a PVDF membrane (Millipore). Afterwards, the membrane was reacted with 1 μg/ml of GKB101 or a variant antibody thereof for 1 hour each, then washed with TBST (TBS+Tween20) three times. Afterwards, it was reacted with a secondary antibody (anti-human IgG HRP, Millipore) for 1 hour, then washed with TBST three times to be treated with ECL (West® bright ECL, Advanta) to identify its protein expression (LAS-4000, Fujifilm).

[3] = target: T3, mouse-derived WARS1 recombinant protein; experiment: western blot; recombinant protein, J774A.1 culture supernatant, mouse serum
Description: as §1, §2

[4] = target: T1, human WARS1 recombinant protein; experiment: western blot; recombinant protein, THP-1 culture supernatant, human serum
Description: as §1, §2

[5] = target: T1, human WARS1 recombinant protein; experiment: direct ELISA
Description: (§3) Specifically, for direct ELISA, a 96-well plate (Maxisorp, Thermo Fisher) was coated with WARS1 having a 1 μg/ml concentration of a recombinant protein derived from human, marmoset (NHP), mouse, rat, and pig, and then blocked with PBS containing 1% BSA at room temperature for 1 hour. The GKB101 antibody or a variant antibody thereof was diluted in a concentration-dependent manner, added to each coated well, reacted at room temperature for 1 hour, and then washed four times with PBST (PBS+Tween20). Each well was treated and reacted for 1 hour with an antibody (anti-Human IgG, cell signaling) to which HRP is attached, and then washed with PBST. Lastly, after developing with a TMB substrate (BD), its absorbance was measured at 490 nm (NIVO) (FIGS. 4a to 5).

[6] = target: T3, mouse-derived WARS1 recombinant protein; experiment: direct ELISA
Description: as §3

[7] = target: T2, rat-derived WARS1 recombinant protein; experiment: direct ELISA
Description: as §3

secretion of TNF-α in mouse macrophage J774A.1 cells [1] | binding result [2] | binding result [3] | binding result [4] | Kd [5] | Kd [6] | Kd [7] | Binder
≥ 40% | binds | binds |  |  |  |  | GKB101 (antibody, V domains shown, Parent antibody; expressed in Expi293 cells; also called GKB101 antibody; anti-WARS1 antibody) VH: EVQLLESGGGLVQPGGSLRLSCAASGFTFSSYDMSWVRQAPGKGLEWVSAISSGGSSIYYADSVKGRFTISRDNSKNTLYLQMNSLRAEDTAVYYCARDVAWDMLGDFDYWGQGTLVTVSS VL: QSVLTQPPSASGTPGQRVTISCTGSSSNIGSNYVYWYQQLPGTAPKLLIYANSHRPSGVPDRFSGSKSGTSASLAISGLRSEDEADYYCGAWDDSLSAYVFGGGTKLTVLT
 | binds | binds | binds |  |  |  | SH/IL (antibody, V domains shown, L-CDR2 variant of GKB101; also called SH/IL antibody) VH: EVQLLESGGGLVQPGGSLRLSCAASGFTFSSYDMSWVRQAPGKGLEWVSAISSGGSSIYYADSVKGRFTISRDNSKNTLYLQMNSLRAEDTAVYYCARDVAWDMLGDFDYWGQGTLVTVSS VL: QSVLTQPPSASGTPGQRVTISCTGSSSNIGSNYVYWYQQLPGTAPKLLIYANILRPSGVPDRFSGSKSGTSASLAISGLRSEDEADYYCGAWDDSLSAYVFGGGTKLTVLT
 | binds | binds | binds |  |  |  | S53T (antibody, V domains shown, L-CDR2 variant of GKB101; also called S53T antibody) VH: EVQLLESGGGLVQPGGSLRLSCAASGFTFSSYDMSWVRQAPGKGLEWVSAISSGGSSIYYADSVKGRFTISRDNSKNTLYLQMNSLRAEDTAVYYCARDVAWDMLGDFDYWGQGTLVTVSS VL: QSVLTQPPSASGTPGQRVTISCTGSSSNIGSNYVYWYQQLPGTAPKLLIYANTHRPSGVPDRFSGSKSGTSASLAISGLRSEDEADYYCGAWDDSLSAYVFGGGTKLTVLT
 | binds | binds | binds |  |  |  | SH/LL (antibody, V domains shown, L-CDR2 variant of GKB101; also called SH/LL antibody) VH: EVQLLESGGGLVQPGGSLRLSCAASGFTFSSYDMSWVRQAPGKGLEWVSAISSGGSSIYYADSVKGRFTISRDNSKNTLYLQMNSLRAEDTAVYYCARDVAWDMLGDFDYWGQGTLVTVSS VL: QSVLTQPPSASGTPGQRVTISCTGSSSNIGSNYVYWYQQLPGTAPKLLIYANLLRPSGVPDRFSGSKSGTSASLAISGLRSEDEADYYCGAWDDSLSAYVFGGGTKLTVLT
 |  |  |  | ~1 pM | ~1 pM | ~1 pM | SH/QL (antibody, V domains shown, L-CDR2 variant of GKB101; also called SH/QL antibody) VH: EVQLLESGGGLVQPGGSLRLSCAASGFTFSSYDMSWVRQAPGKGLEWVSAISSGGSSIYYADSVKGRFTISRDNSKNTLYLQMNSLRAEDTAVYYCARDVAWDMLGDFDYWGQGTLVTVSS VL: QSVLTQPPSASGTPGQRVTISCTGSSSNIGSNYVYWYQQLPGTAPKLLIYANQLRPSGVPDRFSGSKSGTSASLAISGLRSEDEADYYCGAWDDSLSAYVFGGGTKLTVLT
 |  | binds | binds |  |  | ~1 pM | H54L (antibody, V domains shown, L-CDR2 variant of GKB101; also called H54L antibody) VH: EVQLLESGGGLVQPGGSLRLSCAASGFTFSSYDMSWVRQAPGKGLEWVSAISSGGSSIYYADSVKGRFTISRDNSKNTLYLQMNSLRAEDTAVYYCARDVAWDMLGDFDYWGQGTLVTVSS VL: QSVLTQPPSASGTPGQRVTISCTGSSSNIGSNYVYWYQQLPGTAPKLLIYANSLRPSGVPDRFSGSKSGTSASLAISGLRSEDEADYYCGAWDDSLSAYVFGGGTKLTVLT
≥ 40% | binds | binds |  |  |  |  | S53I (antibody, V domains shown, L-CDR2 variant of GKB101; also called S53I antibody) VH: EVQLLESGGGLVQPGGSLRLSCAASGFTFSSYDMSWVRQAPGKGLEWVSAISSGGSSIYYADSVKGRFTISRDNSKNTLYLQMNSLRAEDTAVYYCARDVAWDMLGDFDYWGQGTLVTVSS VL: QSVLTQPPSASGTPGQRVTISCTGSSSNIGSNYVYWYQQLPGTAPKLLIYANIHRPSGVPDRFSGSKSGTSASLAISGLRSEDEADYYCGAWDDSLSAYVFGGGTKLTVLT
 | binds | binds | binds |  |  |  | H54I (antibody, V domains shown, L-CDR2 variant of GKB101; also called H54I antibody) VH: EVQLLESGGGLVQPGGSLRLSCAASGFTFSSYDMSWVRQAPGKGLEWVSAISSGGSSIYYADSVKGRFTISRDNSKNTLYLQMNSLRAEDTAVYYCARDVAWDMLGDFDYWGQGTLVTVSS VL: QSVLTQPPSASGTPGQRVTISCTGSSSNIGSNYVYWYQQLPGTAPKLLIYANSIRPSGVPDRFSGSKSGTSASLAISGLRSEDEADYYCGAWDDSLSAYVFGGGTKLTVLT
 | binds | binds | binds |  |  |  | H54F (antibody, V domains shown, L-CDR2 variant of GKB101; also called H54F antibody) VH: EVQLLESGGGLVQPGGSLRLSCAASGFTFSSYDMSWVRQAPGKGLEWVSAISSGGSSIYYADSVKGRFTISRDNSKNTLYLQMNSLRAEDTAVYYCARDVAWDMLGDFDYWGQGTLVTVSS VL: QSVLTQPPSASGTPGQRVTISCTGSSSNIGSNYVYWYQQLPGTAPKLLIYANSFRPSGVPDRFSGSKSGTSASLAISGLRSEDEADYYCGAWDDSLSAYVFGGGTKLTVLT
